According to patent US9993536B2, “Peptides and combination of peptides and scaffolds for use in immunotherapy against renal cell carcinoma (RCC) and other cancers” (immatics biotechnologies GmbH, priority 2015, dated 2018):

How the values were obtained:
[1] = tested on: CD8+ T cells; test: In vitro T-cell priming assay with aAPCs loaded with peptide/MHC complexes and anti-CD28 (immunogenicity, multimer staining); assay type: cell-based, human; settings: for Wells positive [%]: in vitro immunogenicity, HLA class I peptides, percentage of positive wells; for in vitro immunogenicity: donors / in vitro immunogenicity: wells: healthy HLA-A*02+ donors; for in vitro immunogenicity: donors: share of positive donors; for in vitro immunogenicity: wells: share of positive wells
Excerpt: In order to obtain information regarding the immunogenicity of the TUMAPs of the present invention, the inventors performed investigations using an in vitro T-cell priming assay based on repeated stimulations of CD8+ T cells with artificial antigen presenting cells (aAPCs) loaded with peptide/MHC complexes and anti-CD28 antibody.
In order to perform in vitro stimulations by artificial antigen presenting cells loaded with peptide-MHC complex (pMHC) and anti-CD28 antibody, the inventors first isolated CD8+ T cells from fresh HLA-A*02 leukapheresis products via positive selection using CD8 microbeads (Miltenyi Biotec, Bergisch-Gladbach, Germany) of healthy donors obtained from the University clinics Mannheim, Germany, after informed consent.
PBMCs and isolated CD8+ lymphocytes were incubated in T-cell medium (TCM) until use consisting of RPMI-Glutamax (Invitrogen, Karlsruhe, Germany) supplemented with 10% heat inactivated human AB serum (PAN-Biotech, Aidenbach, Germany), 100 U/ml Penicillin/100 μg/ml Streptomycin (Cambrex, Cologne, Germany), 1 mM sodium pyruvate (CC Pro, Oberdorla, Germany), 20 μg/ml Gentamycin (Cambrex). 2.5 ng/ml IL-7 (PromoCell, Heidelberg, Germany) and 10 U/ml IL-2 (Novartis Pharma, Nürnberg, Germany) were also added to the TCM at this step.
Generation of pMHC/anti-CD28 coated beads, T-cell stimulations and readout was performed in a highly defined in vitro system using four different pMHC molecules per stimulation condition and 8 different pMHC molecules per readout condition.
The purified co-stimulatory mouse IgG2a anti human CD28 Ab 9.3 (Jung et al., 1987) was chemically biotinylated using Sulfo-N-hydroxysuccinimidobiotin as recommended by the manufacturer (Perbio, Bonn, Germany). Beads used were 5.6 μm diameter streptavidin coated polystyrene particles (Bangs Laboratories, Illinois, USA).
pMHC used for positive and negative control stimulations were A*0201/MLA-001 (peptide […] (SEQ ID NO. 152) from modified Melan-A/MART-1) and A*0201/DDX5-001 ([…] from DDX5 (SEQ ID NO. 153)), respectively.
800.000 beads/200 μl were coated in 96-well plates in the presence of 4×12.5 ng different biotin-pMHC, washed and 600 ng biotin anti-CD28 were added subsequently in a volume of 200 μl. Stimulations were initiated in 96-well plates by co-incubating […] CD8+ T cells with 2×10^5 washed coated beads in 200 μl TCM supplemented with 5 ng/ml IL-12 (PromoCell) for 3 days at 37° C. Half of the medium was then exchanged by fresh TCM supplemented with 80 U/ml IL-2 and incubating was continued for 4 days at 37° C. This stimulation cycle was performed for a total of three times. For the pMHC multimer readout using 8 different pMHC molecules per condition, a two-dimensional combinatorial coding approach was used as previously described (Andersen et al., 2012) with minor modifications encompassing coupling to 5 different fluorochromes. Finally, multimeric analyses were performed by staining the cells with Live/dead near IR dye (Invitrogen, Karlsruhe, Germany), CD8-FITC antibody clone SK1 (BD, Heidelberg, Germany) and fluorescent pMHC multimers. For analysis, a BD LSRII SORP cytometer equipped with appropriate lasers and filters was used. Peptide specific cells were calculated as percentage of total CD8+ cells. Evaluation of multimeric analysis was done using the FlowJo software (Tree Star, Oregon, USA). In vitro priming of specific multimer+ CD8+ lymphocytes was detected by comparing to negative control stimulations.

[2] = biological target: HLA-A*02:01 (Homo sapiens, UniProt P04439, D140Y/D185E/D98H/E176V/E277Q/G131W/G231S/I119V/I121R/I166T/I218V/L300P/L318F/N151K/N90K/P208A/P217A/Q86G/Q94H/R138H/R169H/T345S); test: MHC binding assay (UV-ligand exchange, beta2m ELISA); settings: peptide exchange yield, HLA-A*02:01, UV-ligand exchange
Excerpt: Candidate peptides for T cell based therapies according to the present invention were further tested for their MHC binding capacity (affinity). The individual peptide-MHC complexes were produced by UV-ligand exchange, where a UV-sensitive peptide is cleaved upon UV-irradiation, and exchanged with the peptide of interest as analyzed. Only peptide candidates that can effectively bind and stabilize the peptide-receptive MHC molecules prevent dissociation of the MHC complexes. To determine the yield of the exchange reaction, an ELISA was performed based on the detection of the light chain (β2m) of stabilized MHC complexes. The assay was performed as generally described in Rodenko et al. (Rodenko et al., 2006).
96 well MAXISorp plates (NUNC) were coated over night with 2 ug/ml streptavidin in PBS at room temperature, washed 4× and blocked for 1 h at 37° C. in 2% BSA containing blocking buffer. Refolded HLA-A*02:01/MLA-001 monomers served as standards, covering the range of 15-500 ng/ml. Peptide-MHC monomers of the UV-exchange reaction were diluted 100 fold in blocking buffer. Samples were incubated for 1 h at 37° C., washed four times, incubated with 2 ug/ml HRP conjugated anti-β2m for 1 h at 37° C., washed again and detected with TMB solution that is stopped with […]. Absorption was measured at 450 nm. Candidate peptides that show a high exchange yield (preferably higher than 50%, most preferred higher than 75%) are generally preferred for a generation and production of antibodies or fragments thereof, and/or T cell receptors or fragments thereof, as they show sufficient avidity to the MHC molecules and prevent dissociation of the MHC complexes.

| Substance | Wells positive [%] [1] | Peptide exchange (MHC class I binding score) [2] | in vitro immunogenicity: donors [1] | in vitro immunogenicity: wells [1] |
| --- | --- | --- | --- | --- |
| 1 (ALIVSLPYL; listed as Homo sapiens) [compound 1] | + (<20% = +) | +++ (≥50 = +++) | – | – |
| 2 (ILWREVVTL; listed as Homo sapiens) [compound 2] | + (<20% = +) | +++ (≥50 = +++) | – | – |
| 3 (RLLGEVQAL; listed as Homo sapiens) [compound 3] | + (<20% = +) | ++ (≥20% = ++) | – | – |
| 6 (VLFELSKTV; listed as Homo sapiens) [compound 6] | + (<20% = +) | +++ (≥50 = +++) | – | – |
| 7 (FLLSLIDRL; listed as Homo sapiens) [compound 7] | + (<20% = +) | +++ (≥50 = +++) | – | – |
| 9 (ILLQKPDSV; listed as Homo sapiens) [compound 9] | + (<20% = +) | ++ (≥20% = ++) | – | – |
| 15 (ILIKHLVKV; listed as Homo sapiens) [compound 15] | + (<20% = +) | ++ (≥20% = ++) | – | – |
| 16 (FMPEELPQL; listed as Homo sapiens) [compound 16] | + (<20% = +) | ++ (≥20% = ++) | – | – |
| 20 (AVANTTFTV; listed as Homo sapiens) [compound 20] | + (<20% = +) | ++ (≥20% = ++) | – | – |
| 29 (ILLDLEQAL; listed as Homo sapiens) [compound 29] | + (<20% = +) | +++ (≥50 = +++) | – | – |
| 95 (KLTDVGIATL; listed as Homo sapiens) [compound 95] | ++++ (>=70% = ++++) | ++ (≥20% = ++) | – | – |
| 98 (KIPPVSPSI; listed as Homo sapiens) [compound 98] | ++++ (>=70% = ++++) | ++ (≥20% = ++) | – | – |
| 106 (VLMDLKALL; listed as Homo sapiens) [compound 106] | – | +++ (≥50 = +++) | – | – |
| 107 (VLMDLKALLL; listed as Homo sapiens) [compound 107] | – | +++ (≥50 = +++) | – | – |
| 108 (VLISVLQAI; listed as Homo sapiens) [compound 108] | – | ++ (≥20% = ++) | – | – |
| 109 (YLWSRVEKL; listed as Homo sapiens) [compound 109] | – | ++++ (≥75% = ++++) | – | – |
| 110 (LLDLHSYLL; listed as Homo sapiens) [compound 110] | – | ++ (≥20% = ++) | – | – |
| 111 (TLLETEMLL; listed as Homo sapiens) [compound 111] | – | ++ (≥20% = ++) | – | – |
| 112 (LLFDHLEPIEL; listed as Homo sapiens) [compound 112] | – | +++ (≥50 = +++) | – | – |
| 113 (SLFDWNVKL; listed as Homo sapiens) [compound 113] | – | +++ (≥50 = +++) | – | – |
| 114 (ALAVNISAA; listed as Homo sapiens) [compound 114] | – | +++ (≥50 = +++) | – | – |
| 123 (YVDPVITSI; listed as Homo sapiens) [compound 123] | – | – | ++++ (>=70% = ++++) | + (<20% = +) |
| 127 (VLAPLFVYL; listed as Homo sapiens) [compound 127] | – | – | ++++ (>=70% = ++++) | ++ (20%-49% = ++) |
| 143 (ALFVRLLALA; listed as Homo sapiens) [compound 143] | – | – | +++ (50%-69% = +++) | + (<20% = +) |
